According to paper PMC12278339 (2025):

Target: Gab2a 12mer peptide (Homo sapiens, UniProt Q9UQC2)
Test: SPR

Chain of Gab2a 12mer peptide (Q9UQC2 whole entry): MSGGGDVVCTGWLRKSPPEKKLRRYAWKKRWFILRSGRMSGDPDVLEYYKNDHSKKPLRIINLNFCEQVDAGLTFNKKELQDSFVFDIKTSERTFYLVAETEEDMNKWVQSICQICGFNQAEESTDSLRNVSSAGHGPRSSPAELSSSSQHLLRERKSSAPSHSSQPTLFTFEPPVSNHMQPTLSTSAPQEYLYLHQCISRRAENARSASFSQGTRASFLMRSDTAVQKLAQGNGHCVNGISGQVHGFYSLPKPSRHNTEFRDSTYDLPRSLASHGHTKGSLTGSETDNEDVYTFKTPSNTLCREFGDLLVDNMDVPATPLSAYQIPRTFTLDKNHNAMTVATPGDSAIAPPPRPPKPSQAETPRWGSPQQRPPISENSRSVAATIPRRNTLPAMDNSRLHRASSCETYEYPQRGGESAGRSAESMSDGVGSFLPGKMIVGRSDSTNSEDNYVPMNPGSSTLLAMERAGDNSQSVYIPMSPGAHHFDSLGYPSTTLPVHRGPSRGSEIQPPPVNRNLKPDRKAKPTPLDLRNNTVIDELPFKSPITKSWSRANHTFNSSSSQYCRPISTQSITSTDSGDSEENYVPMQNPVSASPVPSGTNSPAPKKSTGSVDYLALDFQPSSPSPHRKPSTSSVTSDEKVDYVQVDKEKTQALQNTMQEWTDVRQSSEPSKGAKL

B1: Grb2 SH3C (protein)
chain: QQPTYVQALFDFDPQEDGELGFRRGDFIHVMDNSDPNWWKGACHGQTGMFPRNYVTPVNR
- Kd: 161 µM
